This is an account of results in US20090203134A1, “REMEDY FOR NERVE CELL REGENERATION” (Kyoto University, priority 2005, published 2009).

The subject of experiment [1] is Muller cells. The experiment is described as follows: Retinal organ culture, BrdU immunostaining of divided cells. It counts as cell-based, rat. To be noted: 4 days. On the procedure: (§1) The retina excluding the pigment epithelium was obtained from a 6-week-old adult DA rat (obtained from Shimizu Laboratory Supplies Co., Ltd. (Kyoto)) and a retinal organ culture was then carried out on a Millicell chamber filter. The retinal organ culture was conducted according to a method described in Methods 2002; 28: 387-395 and Brain Res 2002; 954: 286-293. The culture medium used was 50% Minimum Essential Medium +HEPES (Invitrogen Corporation)/25% Hank's solution (Invitrogen Corporation)/25% inactivated horse serum/200 μM L-glutamine/5.75 mg/ml glucose.
Wnt3a (100 ng/ml; R&D Systems) and BrdU (5ng/ml; SIGMA) were added to the culture medium everyday and a frozen specimen was then prepared after 4 days, followed by investigating the presence or absence of BrdU-positive divided cells by an immunological staining with a BrdU antibody.
Further, an inhibitor of glycogen synthase kinase 3β(GSK-3β), AR-A014418(J, Biol. Chem., Vol, 278, No. 46, p45937-45945, 2003), was added to a culture medium for the retina organ culture and the effect thereof was examined. […] In contrast, the number of BrdU-positive cells in control without the addition of AR-AO14418 was small.

In experiment [2] the test system is Muller cells. Description: Retinal organ culture, Rhodopsin expression of divided cells (differentiation into retinal nerve cells). It counts as cell-based, rat. To be noted: 4 day culture with Wnt3a, then 1 week without Wnt3a. On the procedure: as §1
Further, after 4 day culture with the addition of Wnt3a, the culture medium was changed, and the culture was then cultured for 1 week without Wnt3a.

Take `COc1ccc(CNC(=O)Nc2ncc([N+](=O)[O-])s2)cc1` [AR-A014418, reference compound]: the “number of BrdU-positive cells” value in experiment [1] (retina organ culture, 5 μM AR-A014418 together with BrdU, versus control without addition, FIG. 4) is listed as “the number of BrdU-positive cells was increased”.

B1: Wnt3a: Wnt3a protein (R&D Systems), a secretory glycoprotein of the Wnt family (protein, UniProt P56704 19-352, looked up)
Protein Wnt-3a: SYPIWWSLAVGPQYSSLGSQPILCASIPGLVPKQLRFCRNYVEIMPSVAEGIKIGIQECQHQFRGRRWNCTTVHDSLAIFGPVLDKATRESAFVHAIASAGVAFAVTRSCAEGTAAICGCSSRHQGSPGKGWKWGGCSEDIEFGGMVSREFADARENRPDARSAMNRHNNEAGRQAIASHMHLKCKCHGLSGSCEVKTCWWSQPDFRAIGDFLKDKYDSASEMVVEKHRESRGWVETLRPRYTYFKVPTERDLVYYEASPNFCEPNPETGSFGTRDRTCNVSSHGIDGCDLLCCGRGHNARAERRREKCRCVFHWCCYVSCQECTRVYDVHTCK
On to B1, for which the “BrdU-positive divided cells (immunological staining with a BrdU antibody)” value in experiment [1] (adult DA rat retinal organ culture, Wnt3a 100 ng/ml added everyday, compared with control without Wnt3a, FIG. 1) was “many BrdU-positive divided cells in the retinal inner nuclear layer (INL)”. Further, the “ratio of the divided cells (number of divided cells in INL)” value in experiment [1] (adult DA rat retinal organ culture, Wnt3a 100 ng/ml, FIG. 2) was “dramatic increase in the number of the divided cells in INL”. The “identity of divided cells (glutamine synthetase and BrdU immunological staining)” value in experiment [1] (adult DA rat retinal organ culture, Wnt3a 100 ng/ml, FIG. 3) is given as “most of these divided cells were identified as glutamine synthetase positive Muller cells”. Also, the “expression of Rhodopsin (marker of the visual cells) in divided cells” value in experiment [2] is listed as “a part of the divided cells express Rhodopsin”.
